Measured values: patent US20210070872A1 (AGENUS, published 2021)
Each block holds one molecule with its values, some of them ahead of it.

Assays:
[1] = molecular target: purified recombinant human GITR protein (Example 1) (human) (UniProt Q9Y5U5); assay: SPR (BIAcore), huGITR immobilized on CM5, analyte 12.5-200 nM
biotinylated GITR = molecular target: T1, biotinylated GITR (human, UniProt Q9Y5U5 26-161, limits assumed, biotinylated (sites not given)); assay: BLI (Octet), biotin-GITR on streptavidin tips, antibody supernatant
T1 construct: also called GITR-bio; Biotin-GITR
T1 sequence: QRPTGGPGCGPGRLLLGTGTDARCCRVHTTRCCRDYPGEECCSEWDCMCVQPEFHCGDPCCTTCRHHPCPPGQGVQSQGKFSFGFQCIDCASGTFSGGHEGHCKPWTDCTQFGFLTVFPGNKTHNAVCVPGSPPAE
How it was run: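 Biolayer interferometry at 30° C in PBS/0.05% Tween pH 7.4: biotinylated GITR loaded 10 min on streptavidin tips; association 5 min in antibody culture supernatant diluted 1:10, dissociation 5 min in buffer. Affinity, kon and koff fitted to a 1:1 model with local full fitting.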

[2] = molecular target: T2, GITR antigen (R&D systems, di-sulfide-linked homodimer; 689-GR) (human, UniProt Q9Y5U5 26-161); assay: SPR (BIAcore T100/T200), antibody captured via anti-human Fab, GITR antigen 40/10/2.5 nM, 1:1 model
T2 construct: Bought
T2 sequence: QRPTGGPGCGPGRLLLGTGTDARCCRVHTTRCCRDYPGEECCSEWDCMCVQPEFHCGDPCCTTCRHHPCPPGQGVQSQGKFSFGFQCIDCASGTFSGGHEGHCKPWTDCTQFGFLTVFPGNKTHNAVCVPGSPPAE
Protocol: All interactions were analyzed at 25° C. using 1× DPBS (PAA, H15-002) plus P20 (0.05%, Pierce, 28320) as running buffer. Anti-GITR antibodies (8 μg/ml in running buffer) were captured to the chip surface of a CM5 sensor chip (GE Healthcare, Series S CM5, BR-1005-30) via an immobilized anti-human Fab antibody (GE Healthcare, Fab Capture Kit, 28958325). To detect unspecific interactions of the GITR antigen, antibody capture was only performed in flow cell 2, whereas in flow cell 1 only the capturing antibody was immobilized. In addition, an unrelated antibody (anti-IL-1β; SK48E26; International Publication No. WO 95/001997) was used to assess specificity of GITR binding. After capture of the anti-GITR antibodies GITR antigen (R&D systems, di-sulfide-linked homodimer; 689-GR) was run through both flow cells in different amounts (40 nM, 10 nM and 2.5 nM) for each antibody. Also a blank curve (running buffer only) was included in each run. Association was run for 90 s and dissociation for 600 s with a flow rate of 10 μl/min. After each run a regeneration step was performed with 10 mM Glycine pH2.0 (GE Healthcare, BR-1003-55) for 60 s with 30 μl/min. Binding curves were evaluated using BIAcore® T200 evaluation software version 2.0.1 applying a Langmuir 1:1 model with global fit of Rmax.

[3] = molecular target: T3, human GITR D60A mutant on 1624-5 cells (human, UniProt Q9Y5U5 26-241); assay: flow cytometry on 1624-5 cells, 2 µg/ml, MFI ratio to polyclonal antibody
T3 chain: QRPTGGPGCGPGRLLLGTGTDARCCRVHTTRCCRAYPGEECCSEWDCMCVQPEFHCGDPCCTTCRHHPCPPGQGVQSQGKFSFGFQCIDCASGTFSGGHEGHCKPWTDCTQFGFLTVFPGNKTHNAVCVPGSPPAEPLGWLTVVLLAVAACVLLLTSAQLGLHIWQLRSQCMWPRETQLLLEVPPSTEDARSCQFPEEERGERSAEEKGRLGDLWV
Protocol: (§1) An average MFI ratio (“AMFI ratio”) was calculated based on the individual MFI ratios for all the mutants. FIG. 34A is a table summarizing the binding of Hum231#2, three germline variants (pab1967, pab1975 and pab1979) and the reference antibody m6C8 to1624-5 cells expressing human GITR alanine mutants. An individual MFI ratio that is above 60% of the AMFI ratio is considered to indicate similar binding, after normalization, of that of the polyclonal antibody and is represented by “+” in FIG. 34A. An individual MFI ratio that is between 30% and 60% of the AMFI ratio is represented by “+/−” in FIG. 34A. An individual MFI ratio that is below 30% of the AMFI ratio is represented by “−” in FIG. 34A.
(§2) All the mean fluorescence intensity (MFI) values were calculated as the mean of two measurements. […] The percentage of binding of an antibody to the GITR alanine mutants relative to the wild type GITR was calculated by dividing a particular MFI ratio for the GITR alanine mutants by the corresponding MFI ratio for the wild type (e.g., dividing MFI ratio_{Hum231#2, D60A} by MFI ratio_{Hum231#2, WT}). The percentage of reduction in binding was determined by calculating, e.g., 100%*(1−(MFI ratio_{Hum231#2, D60A}/MFI ratio_{Hum231#2, WT})).

[4] = molecular target: T4, human GITR G63A mutant on 1624-5 cells (human, UniProt Q9Y5U5 26-241); assay: as above
T4 chain: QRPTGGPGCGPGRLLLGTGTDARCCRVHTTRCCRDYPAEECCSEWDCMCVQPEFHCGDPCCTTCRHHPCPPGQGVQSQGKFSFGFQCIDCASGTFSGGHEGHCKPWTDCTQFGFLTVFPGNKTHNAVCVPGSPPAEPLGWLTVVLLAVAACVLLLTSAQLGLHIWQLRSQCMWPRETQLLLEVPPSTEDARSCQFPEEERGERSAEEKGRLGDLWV
Protocol: as §1, §2

recombinant mouse GITR = molecular target: T5, recombinant mouse GITR (mouse, UniProt O35714 20-153, limits assumed); assay: Western blot, non-reducing
T5 construct: also called Mu GITR recomb protein; immobilized mouse GITR
T5 sequence (looked up): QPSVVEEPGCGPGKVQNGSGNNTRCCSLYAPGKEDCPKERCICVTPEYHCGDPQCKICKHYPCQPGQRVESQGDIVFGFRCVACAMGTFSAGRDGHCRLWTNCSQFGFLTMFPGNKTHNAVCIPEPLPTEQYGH
Protocol: The specificity of the anti-GITR-antibodies was tested by Western blot against purified recombinant human GITR, recombinant mouse GITR, CMS5a cells transfected with human GITR, wild-type CMS5a cells, activated CD4⁺ T cells and untreated CD4⁺ T cells. The Western blot, under non-reducing conditions, is depicted in FIG. 1. The anti-GITR antibodies were reactive with purified recombinant human GITR, not reactive with recombinant mouse GITR, reactive with recombinant human GITR in CMS5a cells, and reactive with natural human GITR in activated CD4⁺ T cells.

[5] = molecular target: T6, purified recombinant human GITR protein (Example 1) (human, UniProt Q9Y5U5 26-162, limits assumed); assay: SPR (BIAcore), huGITR immobilized on CM5, antibody 6.25-100 nM
T6 construct: also called Hu GITR recomb protein; immobilized huGITR
T6 sequence: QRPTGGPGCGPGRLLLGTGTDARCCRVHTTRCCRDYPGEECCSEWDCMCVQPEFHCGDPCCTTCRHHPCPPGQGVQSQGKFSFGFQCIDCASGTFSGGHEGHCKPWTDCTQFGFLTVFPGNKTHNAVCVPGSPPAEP
Protocol: Analysis of ligand (GITR-L) and monoclonal antibody binding to immobilized huGITR was performed by surface plasmon resonance and measured on BIAcore®. GITR (˜1100 RU) was immobilized onto a CM5 sensor chip using standard amine coupling. Analytes were injected over the immobilized GITR for 15 minutes at a flow rate of 5 μl/min followed by a 10 minute dissociation period. After kinetic runs had been performed the affinity and dissociation constants were simultaneously calculated by BiaEvaluation® software (Biacore Life Sciences). Binding of human GITR-L was analysed over a concentration range of 12.5-200 nM and murine anti-GITR monoclonal antibodies were analysed over a concentration of 6.25-100 nM. […] Affinity and dissociation constants for the antibodies are tabulated below in Table 9.

Ka [1]: 1.81e+08 M⁻¹
Kd [1]: 5.54 nM
Molecule: human GITR-L (Example 1, BIAcore analyte) (from UniProt Q9UNG2 49-177) (ligand)

Kd (biotinylated GITR): 8.44 nM
koff (biotinylated GITR): 0.00261 s⁻¹
kon (biotinylated GITR): 309000 M⁻¹ s⁻¹
B1: germline variant antibody 21 (H1916C03 / K1916C03) (antibody, V domains shown)
VH: QVQLVQSGTEVKKPGASVKVSCKGSGYTFTGYVMHWVRQAPGQGMEWIGVIRTFSGDVSYNQKFRERVTMTVDTSISTAYMELSRLRSDDTAVYYCAKSGTVRGFAYWGQGTLVTVSS
VL: DIVMTQSPDSLAVSLGERATINCKSSQSLLNSGNQKNYLTWYHQKPGQPPKLLIYWASTRESGVPDRFSGSGSGTDFTLTISSVQAEDVAVYHCQNDYSYPYTFGQGTKLEIK
notes: IGHG1/IGKC expression vectors; measured from CHO culture supernatant; also called Antibody ID 21

Kd [2]: 0.702 nM
koff [2]: 0.00249 s⁻¹
kon [2]: 3.55e+06 M⁻¹ s⁻¹
B2: Hum231#1 (antibody, V domains shown)
VH: QVQLVQSGAEVKKPGASVKVSCKGSGYTFTDYAMYWVRQAPGQGLEWIGVIRTYSGDVTYNQKFKDRATMTVDKSISTAYMELSRLRSDDTAVYYCAKSGTVRGFAYWGQGTLVTVSS
VL: DIVMTQSPPTLSLSPGERVTLSCKSSQSLLNSGNQKNYLTWYQQKPGQAPRLLIYWASTRESGIPARFSGSGSGTDFTLTISSLQPEDFAVYHCQNDYSYPYTFGQGTKLEIK
notes: Variable regions cloned with IGHG1 (also IGHG4 and Fab vectors exist) and IGKC constant regions; format in each assay not always stated; also called humanized variant Hum231#1 (IGHV1-2*02 and IGK3-7*02)

Kd (biotinylated GITR): 1.35 nM
koff (biotinylated GITR): 0.00038 s⁻¹
kon (biotinylated GITR): 283000 M⁻¹ s⁻¹
B3: germline variant antibody 20 (H1916B12 / K1916B12) (antibody, V domains shown)
VH: QVQLVQSGTEVKKPGASVKVSCKASGYTFTDYAMYWVRQAPGQGLEWIGVIRTFSGDLSYNQKFRGRVTMTVDTSISTAYMELSRLRSDDTAVYYCAKSGTVRGFAYWGQGTLVTVSS
VL: DIVMTQSPDSLAVSLGERATINCKSSQSLLNSGNQKNYLTWYQQKPGQPPKMLLYWASTRESGVPDRFTGSGSGTDFTLTISSVQAEDVAVYHCQNDYSYPYTFGQGTKLEIK
notes: IGHG1/IGKC expression vectors; measured from CHO culture supernatant; also called Antibody ID 20

percent reduction in binding relative to wild type human GITR [3]: 10%
percent increase in binding relative to wild type human GITR [4]: 62%
B4: m6C8 (antibody, human IgG1, V domains shown)
VH: QVTLKESGPGILKPSQTLSLTCSFSGFSLSTSGMGVGWIRQPSGKGLEWLAHIWWDDDKYYNPSLKSQLTISKDTSRNQVFLKITSVDTADAATYYCARTRRYFPFAYWGQGTLVTVSS
VL: DIVMTQSQKFMSTSVGDRVSVTCKASQNVGTNVAWYQQKPGQSPKALIYSASYRYSGVPDRFTGSGSGTDFTLTINNVHSEDLAEYFCQQYNTDPLTFGAGTKLEIKR
notes: also called murine antibody 6C8

binding result (recombinant mouse GITR): no binding
Ka [5]: 4.2e+08 M⁻¹
Kd [5]: 2.38 nM
B5: mAb 231-1039-45 (murine) (antibody, mouse IgG1, V domains shown)
VH: QVQLLQSGTELVRPGVSVKISCKGSGYTFTDYAMYWVKQSHAKSLEWIGVIRTYSGDVTYNQKFKDKATMTVDKSSSIAYMELARLSSEDSAIYYCAKSGTVRGFAYWGQGTLVTVSS
VL: DIVMTQSPSSLTVTAGEKVIMSCKSSQSLLNSGNQKNYLTWYQQKPGQPPKLLIYWASTRESGVPDRFTGSGSGTDFTLTISSVQAEDLAVYHCQNDYSYPYTFGGGTKLEIK
notes: Mouse IgG1 from hybridoma

binding result (recombinant mouse GITR): no binding
Ka [5]: 4.3e+08 M⁻¹
Kd [5]: 2.33 nM
B6: mAb 231-1042-7 (murine) (antibody, mouse IgG1, V domains shown)
VH: QVQLLQSGTELVRPGVSVKISCKGSGYTFTDYAMYWVKQSHAKSLEWIGVIRTYSGDVTYNQKFKDKATMTVDKSSSIAYMELARLSSEDSAIYYCAKSGTVRGFAYWGQGTLVTVSS
VL: DIVMTQSPSSLTVTAGEKVIMSCKSSQSLLNSGNQKNYLTWYQQKPGQPPKLLIYWASTRESGVPDRFTGSGSGTDFTLTISSVQAEDLAVYHCQNDYSYPYTFGGGTKLEIK
notes: Mouse IgG1 from hybridoma

binding result (recombinant mouse GITR): no binding
Ka [5]: 4.04e+08 M⁻¹
Kd [5]: 2.47 nM
B7: mAb 231-32-15 (murine) (antibody, mouse IgG1, V domains shown)
VH: QVQLLQSGTELVRPGVSVKISCKGSGYTFTDYAMYWVKQSHAKSLEWIGVIRTYSGDVTYNQKFKDKATMTVDKSSSIAYMELARLSSEDSAIYYCAKSGTVRGFAYWGQGTLVTVSS
VL: DIVMTQSPSSLTVTAGEKVIMSCKSSQSLLNSGNQKNYLTWYQQKPGQPPKLLIYWASTRESGVPDRFTGSGSGTDFTLTISSVQAEDLAVYHCQNDYSYPYTFGGGTKLEIK
notes: Mouse IgG1 from hybridoma; also called antibody 32-15

binding result (recombinant mouse GITR): no binding
Ka [5]: 4.19e+08 M⁻¹
Kd [5]: 2.39 nM
B8: mAb 231-1333-21 (murine) (antibody, mouse IgG1, V domains shown)
VH: QVQLLQSGTELVRPGVSVKISCKGSGYTFTDYAMYWVKQSHAKSLEWIGVIRTYSGDVTYNQKFKDKATMTVDKSSSIAYMELARLSSEDSAIYYCAKSGTVRGFAYWGQGTLVTVSS
VL: DIVMTQSPSSLTVTAGEKVIMSCKSSQSLLNSGNQKNYLTWYQQKPGQPPKLLIYWASTRESGVPDRFTGSGSGTDFTLTISSVQAEDLAVYHCQNDYSYPYTFGGGTKLEIK
notes: Mouse IgG1 from hybridoma
